Test results taken from patent publication US8241627B2, “Modified polypeptides stabilized in a desired conformation and methods for producing same” (The Center for Blood Research, Inc., priority 2000, dated 2012).
Positions count from the first letter of the chain named. In names and notes the source's numbering stands. Values belong to the molecule of their own block, whether it stands above or below them.

Tests used:
ICAM-1 [1] = target: T1, ICAM-1 (Homo sapiens, UniProt P05362); assay: BIAcore binding of soluble αL I-domains to ICAM-1; settings: for Kon, interaction of αL I-domains with ICAM-1: calculated by Koff/KD; for Koff, interaction of αL I-domains with ICAM-1: curve fitting of dissociation phase, 1:1 binding model
Method: Briefly, recombinant mutant αL I-domain stabilized in the open conformation (K287C/K294C), or recombinant wild-type αL I-domain from amino acid residue G128 to Y307, were cloned into pET11b (Novagen) and expressed in E. coli induced with 1 mM IPTG for 4 hours. The recombinant proteins were purified from inclusion bodies by solubilization of inclusion bodies in 6M guanidine HCl and were refolded by dilution in the presence of 0.1 mM Cu^2+/phenanthrolin to enhance formation of disulfide bonds. Protein was concentrated by ammonium sulfate precipitation, dialyzed, and purified over a monoQ ion-exchange column. […] The recombinant proteins were then purified by gel filtration and concentrated by Centriprep. For BIAcore™ analysis, recombinant ICAM-1, ICAM-2 and ICAM-3 Fc chimeras were immobilized on the BIAcore™ sensor chip by an amine-coupling method. Recombinant αL I-domains were flowed in, and BIAcore™ assays were performed with Tris-buffered saline supplemented with 1 mM MgCl2 or 2 mM EDTA, at a flow rate of 10 μl/minute at 25° C.
Target sequence in this assay (P05362 28-480 limits assumed): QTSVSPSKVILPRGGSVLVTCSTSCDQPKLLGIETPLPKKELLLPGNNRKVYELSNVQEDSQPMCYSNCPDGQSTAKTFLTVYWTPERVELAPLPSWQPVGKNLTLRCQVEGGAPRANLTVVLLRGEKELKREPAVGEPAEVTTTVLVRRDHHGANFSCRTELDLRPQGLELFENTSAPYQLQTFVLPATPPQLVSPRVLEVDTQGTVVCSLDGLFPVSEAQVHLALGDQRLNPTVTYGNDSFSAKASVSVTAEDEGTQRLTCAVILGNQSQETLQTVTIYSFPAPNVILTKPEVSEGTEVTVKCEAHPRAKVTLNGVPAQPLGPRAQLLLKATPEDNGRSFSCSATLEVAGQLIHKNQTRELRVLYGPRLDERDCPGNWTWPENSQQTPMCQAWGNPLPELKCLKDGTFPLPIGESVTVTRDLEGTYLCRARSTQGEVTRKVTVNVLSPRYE

ICAM-1 [2] = target: T1, ICAM-1; assay: Binding of LFA-1 or isolated I-domain transfectants to immobilized ICAM-1; format: cell-based; set-up: ICAM-1 was purified from human tonsil; from tissue; host or cells: human tonsil; settings: for binding of 293T transient transfectants to immobilized ICAM-1 with activating mAb CBRLFA-1/2: CBRLFA-1/2 10 μg/ml; for binding of 293T transient transfectants to immobilized ICAM-1: no activating antibody; for binding of K562 cells expressing isolated I-domains to immobilized ICAM-1: I-domain on cell surface via PDGFR transmembrane domain; for effect of Mn2+ or Mg2+ on ligand binding of isolated I-domains: K562, 1 mM Mn2+ or Mg2+; for effect of DTT treatment on binding to ICAM-1: K562 transfectants, DTT 10 mM in L15/FBS
Method: Clones of the transfectants that expressed similar levels of cell surface LFA-1, as determined by flow cytometry using monoclonal antibody TS2/4 (FIG. 3B), were tested for their ability to bind to immobilized ICAM-1, as previously described (Lu, C and Springer, T A (1997) J Immunol 159:268-278).
Briefly, ICAM-1 was purified from human tonsil, and coated to 96-well plates as described previously (Lu, C and Springer T A, (1997) J Immunol 159:268-278). Cells were labeled with a florescence dye 2′,7′-bis-(carboxyethyl)-5(and-6)-carboxyfluorescein, acetoxymethyl ester (BCECF-AM), and resuspended to 1×10^6/ml in L15/FBS. 50 μl cell suspension was mixed in ICAM-1 coated wells with an equal volume of L15/FBS in the absence or presence of monoclonal antibody (CBRLFA-1/2, 10 μg/ml). Monoclonal antibodies were used at final concentration of 1:20 hybridoma supernatant, 1:200 ascites, or μg/ml purified IgG. For testing the effect of divalent cations, BCECF-AM-labeled cells were washed 2× with TS buffer, pH7.5 (20 mM Tris, pH 7.5, 150 mMNaCl) containing 5 mM EDTA, followed by 2 washes with TS buffer, pH7.5. Cells were then resuspended to 5×10^5/ml in the TS buffer, pH7.5 supplemented with 1 mM MgCl2/CaCl2, MgCl2, MnCl2 mM EDTA, and 100 μl cell suspension was added to ICAM-1 coated wells. After incubation at 37° C. for 30 minutes, unbound cells were washed off on a Microplate Autowasher (Bio-Tek Instruments, Winooski, Vt.). The fluorescence content of total input cells and the bound cells in each well was quantitated on a Fluorescent Concentration Analyzer (IDEXX, Westbrook, Me.). The bound cells were expressed as a percentage of total input cells per sample well.
For generating stable K562 transfectants that express the I-domain on the surface, 20 μg of SspI-linearized pcDNA3.1/Hygro(+) containing the sequences encoding the I domain and the PDGFR transmembrane domain was used to transfect K562 cells by electroporation as described above. Transfectants were selected for resistance to 100 μg/ml hygromycin B, and were further subcloned by cell sorting and limiting dilution; clones that expressed similar levels of surface wild-type and mutant I domain-PDGFR were selected for functional studies. Stable cell lines were maintained in RPMI medium 1640 supplemented with 10% FBS and 100 μg/ml hygromycin B. Cell surface expression of the isolated I-domains was determined by flow cytometry using antibody TS1/22 to the I-domain (FIG. 7). Two clones from each transfectant were selected and tested for binding to immobilized ICAM-1, and similar results were obtained with each of the two clones (FIG. 8A).
If the constitutive ligand binding activity of mutant K287C/K294C is due to the formation of a disulfide bond between the introduced C287 and C294, disruption of the disulfide bond with a reducing agent would abolish ligand binding ability of the mutant. Accordingly, the transfectants were treated with the reducing agent DTT (10 mM) in L15/FBS containing Mg^2+ and Ca^2+, and the ability of transfectants to bind to ICAM-1 was assessed.
Furthermore, the effect of divalent cations on ligand binding of the isolated I-domains expressed on the surface of K562 transfectants was tested. The binding reactions were performed in HEPES/NaCl/glucose (20 mM HEPES, pH 7.5, 140 mM NaCl, 2 mg/ml glucose) supplemented with 1 mM […], 1 mM Mg^2+, or 1 mM EDTA.
Target sequence in this assay (P05362 28-532): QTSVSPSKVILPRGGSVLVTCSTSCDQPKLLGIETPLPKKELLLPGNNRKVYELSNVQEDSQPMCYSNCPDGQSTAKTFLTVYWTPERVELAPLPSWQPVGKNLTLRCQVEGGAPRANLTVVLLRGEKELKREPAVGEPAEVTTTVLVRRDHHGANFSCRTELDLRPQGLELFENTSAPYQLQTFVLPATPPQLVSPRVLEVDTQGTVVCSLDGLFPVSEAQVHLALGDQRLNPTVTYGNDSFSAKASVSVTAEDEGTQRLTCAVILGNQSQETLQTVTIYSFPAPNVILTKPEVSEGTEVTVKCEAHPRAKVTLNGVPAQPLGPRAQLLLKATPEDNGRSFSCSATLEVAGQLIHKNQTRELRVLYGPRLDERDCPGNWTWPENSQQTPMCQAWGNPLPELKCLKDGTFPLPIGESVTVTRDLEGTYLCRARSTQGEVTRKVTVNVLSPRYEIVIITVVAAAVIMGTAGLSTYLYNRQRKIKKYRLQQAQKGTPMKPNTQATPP

[3] = test system: T-lymphocytes in peripheral lymph node high endothelial venules; assay: Intravital microscopy of lymphocyte behaviour in peripheral lymph node high endothelial venules; format: in vivo; settings: mouse
Method: Moreover, the ability of the open I-domain mutants to inhibit LFA-1 function in vivo was tested by visualizing microcirculation in the peripheral lymph node (LN) with intravital microscopy. Briefly, a small bolus (20-50 µl) of LN cell suspensions from […] mice were retrogradely injected through a femoral artery catheter and visualized in the subiliac LN by fluorescent epi-illumination from a video-triggered xenon arc stroboscope. After recording control […] cell behavior in the absence of 1-domain, the mouse was pretreated by intra-arterial injection of 1-domain (10 µg/g of weight) 5 minutes before T^GFP cell injection. All scenes were recorded on videotape and off-line analysis was done. The rolling fraction was calculated as percentage of rolling cells amount the total number of TGFβ cells that entered a venule. The sticking (firm adhesion) fraction was determined as the percentage of T^GFP cells becoming firmly adherent for >20 seconds in the number of T^GFP cells that rolled in a venule. Results were semi-quantitatively scored as follows: −: 0%, .+−.: 0-5%, +: 5-20%, ++: 20-40%, +++: 40-60%, ++++: 60-80%, +++++:80-100%.

Kon, interaction of αL I-domains with ICAM-1 (ICAM-1 [1]): 2110 M⁻¹ s⁻¹
Koff, interaction of αL I-domains with ICAM-1 (ICAM-1 [1]): 2.84 s⁻¹
binding of 293T transient transfectants to immobilized ICAM-1 with activating mAb CBRLFA-1/2 (ICAM-1 [2]): not able to activate binding
binding of 293T transient transfectants to immobilized ICAM-1 (ICAM-1 [2]): did not bind
binding of K562 cells expressing isolated I-domains to immobilized ICAM-1 (ICAM-1 [2]): did not bind
effect of Mn2+ or Mg2+ on ligand binding of isolated I-domains (ICAM-1 [2]): did not activate ligand binding
binding of K562 stable transfectants to immobilized ICAM-1 with activating mAb CBRLFA-1/2 (ICAM-1 [2]; K562, CBRLFA-1/2 10 μg/ml): did not binding to ICAM-1
effect of Mn2+ and Mg2+ on binding of K562 transfectants to ICAM-1 (ICAM-1 [2]; K562, intact LFA-1, Mn2+ / Mg2+): did not increase binding
binding of K562 stable transfectants to immobilized ICAM-1 (ICAM-1 [2]; K562, no activating antibody): did not binding to ICAM-1
effect of DTT treatment on binding to ICAM-1 (ICAM-1 [2]): did not affect binding
B1: L289C/K294C: low affinity closed αL I-domain mutant, cysteines for L289 and K294 (protein)
chain: GNVDLVFLFDGSMSLQPDEFQKILDFMKDVMKKLSNTSYQFAAVQFSTSYKTEFDFSDYVKRKDPDALLKHVKHMLLLTNTFGAINYVATEVFREELGARPDATKVLIIITDGEATDSGNIDAAKDIIRYIIGIGKHFQTKESQETLHKFASKPASEFVKICDTFECLKDLFTELQKKIY

Kon, interaction of αL I-domains with ICAM-1 (ICAM-1 [1]): 153000 M⁻¹ s⁻¹
Koff, interaction of αL I-domains with ICAM-1 (ICAM-1 [1]): 0.67 s⁻¹
B2: K160C/F299C: intermediate-affinity open αL I-domain mutant, cysteines for K160 and F299 (protein)
chain: B1 chain with K33C, C162L, C167K, F172C

Kd (ICAM-1 [1]; Scatchard plots using data at steady states, read-out: KD, interaction of αL I-domains with ICAM-1): 1350 µM
Kon, interaction of αL I-domains with ICAM-1 (ICAM-1 [1]): 2220 M⁻¹ s⁻¹
Koff, interaction of αL I-domains with ICAM-1 (ICAM-1 [1]): 3.00 s⁻¹
binding of K562 cells expressing isolated I-domains to immobilized ICAM-1 (ICAM-1 [2]): did not bind
effect of Mn2+ or Mg2+ on ligand binding of isolated I-domains (ICAM-1 [2]): did not activate ligand binding
effect of DTT treatment on binding to ICAM-1 (ICAM-1 [2]): did not affect binding
B3: wild-type I-domain: wild-type αL I-domain, soluble recombinant or expressed on K562 surface via PDGFR transmembrane domain (protein)
chain: B1 chain with C162L, C167K
Fraction transmigration ([3]; intra-arterial I-domain 10 μg/g): ± (.+−.: 0-5%)
Fraction Rolling ([3]; intra-arterial I-domain 10 μg/g 5 minutes before T-GFP cell injection): +++ (+++: 40-60%)
Fraction firm adhesion ([3]; intra-arterial I-domain 10 μg/g, adherent >20 seconds): ++ (++: 20-40%)

Kon, interaction of αL I-domains with ICAM-1 (ICAM-1 [1]): 136000 M⁻¹ s⁻¹
Koff, interaction of αL I-domains with ICAM-1 (ICAM-1 [1]): 0.513 s⁻¹
B4: L161C/F299C: intermediate-affinity open αL I-domain mutant, cysteines for L161 and F299 (protein)
chain: B1 chain with L34C, C162L, C167K, F172C

Kon, interaction of αL I-domains with ICAM-1 (ICAM-1 [1]): 135000 M⁻¹ s⁻¹
Koff, interaction of αL I-domains with ICAM-1 (ICAM-1 [1]): 0.65 s⁻¹
B5: L161C/T300C: intermediate-affinity open αL I-domain mutant, cysteines for L161 and T300 (protein)
chain: B1 chain with L34C, C162L, C167K, T173C

affinity compared with high-affinity open αL I-domain K287C/K294C (times lower) (ICAM-1 [1]; ICAM-1, soluble I-domains): nearly comparable
Kon, interaction of αL I-domains with ICAM-1 (ICAM-1 [1]): 128000 M⁻¹ s⁻¹
Koff, interaction of αL I-domains with ICAM-1 (ICAM-1 [1]): 0.0459 s⁻¹
B6: E284C/E301C: high affinity open αL I-domain mutant, E284 and E301 replaced by cysteines (protein)
chain: B1 chain with E157C, C162L, C167K, E174C

binding of 293T transient transfectants to immobilized ICAM-1 with activating mAb CBRLFA-1/2 (ICAM-1 [2]): increased
binding of 293T transient transfectants to immobilized ICAM-1 (ICAM-1 [2]): reduced binding
B7: K287C: single cysteine substitution mutant of LFA-1 αL (protein, UniProt P20701 26-1170, looked up, variant K287C)
Integrin alpha-L: YNLDVRGARSFSPPRAGRHFGYRVLQVGNGVIVGAPGEGNSTGSLYQCQSGTGHCLPVTLRGSNYTSKYLGMTLATDPTDGSILACDPGLSRTCDQNTYLSGLCYLFRQNLQGPMLQGRPGFQECIKGNVDLVFLFDGSMSLQPDEFQKILDFMKDVMKKLSNTSYQFAAVQFSTSYKTEFDFSDYVKRKDPDALLKHVKHMLLLTNTFGAINYVATEVFREELGARPDATKVLIIITDGEATDSGNIDAAKDIIRYIIGIGKHFQTKESQETLHKFASKPASEFVCILDTFEKLKDLFTELQKKIYVIEGTSKQDLTSFNMELSSSGISADLSRGHAVVGAVGAKDWAGGFLDLKADLQDDTFIGNEPLTPEVRAGYLGYTVTWLPSRQKTSLLASGAPRYQHMGRVLLFQEPQGGGHWSQVQTIHGTQIGSYFGGELCGVDVDQDGETELLLIGAPLFYGEQRGGRVFIYQRRQLGFEEVSELQGDPGYPLGRFGEAITALTDINGDGLVDVAVGAPLEEQGAVYIFNGRHGGLSPQPSQRIEGTQVLSGIQWFGRSIHGVKDLEGDGLADVAVGAESQMIVLSSRPVVDMVTLMSFSPAEIPVHEVECSYSTSNKMKEGVNITICFQIKSLIPQFQGRLVANLTYTLQLDGHRTRRRGLFPGGRHELRRNIAVTTSMSCTDFSFHFPVCVQDLISPINVSLNFSLWEEEGTPRDQRAQGKDIPPILRPSLHSETWEIPFEKNCGEDKKCEANLRVSFSPARSRALRLTAFASLSVELSLSNLEEDAYWVQLDLHFPPGLSFRKVEMLKPHSQIPVSCEELPEESRLLSRALSCNVSSPIFKAGHSVALQMMFNTLVNSSWGDSVELHANVTCNNEDSDLLEDNSATTIIPILYPINILIQDQEDSTLYVSFTPKGPKIHQVKHMYQVRIQPSIHDHNIPTLEAVVGVPQPPSEGPITHQWSVQMEPPVPCHYEDLERLPDAAEPCLPGALFRCPVVFRQEILVQVIGTLELVGEIEASSMFSLCSSLSISFNSSKHFHLYGSNASLAQVVMKVDVVYEKQMLYLYVLSGIGGLLLLLLIFIVLYKVGFFKRNLKEKMEAGRGVPNGIPAEDSEQLASGQEAGDPGCLKPLHEKDSESGGGKD
